Experimental data published in patent US20240417433A1 (NANTONG YICHEN BIOPHARMA, published 2024).
Several values for one entry are separate records, joined by “and”; a condition that tells them apart may be missing. Equal entries are not always repeated.

B1: ATF-L3 (bispecific antibody)
heavy: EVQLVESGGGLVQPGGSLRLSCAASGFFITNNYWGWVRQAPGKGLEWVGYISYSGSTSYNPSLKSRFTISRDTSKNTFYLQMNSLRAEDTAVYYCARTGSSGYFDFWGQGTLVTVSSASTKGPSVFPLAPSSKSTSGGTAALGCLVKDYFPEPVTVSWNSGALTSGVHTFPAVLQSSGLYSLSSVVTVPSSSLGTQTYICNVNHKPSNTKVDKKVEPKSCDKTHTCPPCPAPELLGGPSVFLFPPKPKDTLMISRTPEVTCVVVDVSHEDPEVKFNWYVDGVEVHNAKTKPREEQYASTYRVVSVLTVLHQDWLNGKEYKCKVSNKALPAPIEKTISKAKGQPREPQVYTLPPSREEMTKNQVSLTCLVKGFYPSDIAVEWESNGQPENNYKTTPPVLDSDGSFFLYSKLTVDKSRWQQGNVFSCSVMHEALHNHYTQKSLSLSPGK
light: DIQMTQSPSSLSASVGDRVTITCRASESVDDLLHWYQQKPGKAPKLLIKYASQSISGVPSRFSGSGSGTDFTLTISSLQPEDFATYYCQQGGGSGAKLAALKAKLAALKGGGGSAAAISCVGSPECPPKCRAQGCKNGKCMNRKCKCYYCGGGGSELAALEAELAALEAGGSGNTFGQGTKVEIKRTVAAPSVFIFPPSDEQLKSGTASVVCLLNNFYPREAKVQWKVDNALQSGNSQESVTEQDSKDSTYSLSSTLTLSKADYEKHKVYACEVTHQGLSSPVTKSFNRGEC
notes: Vm24 with linkers grafted into LCDR3 of etrolizumab; also called ATF-L3 (with LCDR3-grafted Vm24)
B2: ATF-L1 (bispecific antibody)
heavy: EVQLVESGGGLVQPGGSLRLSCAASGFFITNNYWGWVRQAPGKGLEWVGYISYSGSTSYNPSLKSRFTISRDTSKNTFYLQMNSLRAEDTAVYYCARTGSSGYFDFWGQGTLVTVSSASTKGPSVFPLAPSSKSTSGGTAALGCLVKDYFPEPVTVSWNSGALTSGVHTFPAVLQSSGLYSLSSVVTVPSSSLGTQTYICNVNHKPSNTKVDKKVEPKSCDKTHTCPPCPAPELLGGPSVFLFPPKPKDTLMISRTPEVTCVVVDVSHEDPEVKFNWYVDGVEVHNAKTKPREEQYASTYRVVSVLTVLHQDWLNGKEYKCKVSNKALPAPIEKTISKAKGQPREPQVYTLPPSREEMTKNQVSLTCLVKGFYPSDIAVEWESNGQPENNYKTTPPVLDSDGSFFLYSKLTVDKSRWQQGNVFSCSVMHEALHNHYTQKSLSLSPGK
light: DIQMTQSPSSLSASVGDRVTITCRASESGGSGAKLAALKAKLAALKGGGGSAAAISCVGSPECPPKCRAQGCKNGKCMNRKCKCYYCGGGGSELAALEAELAALEAGGSGLLHWYQQKPGKAPKLLIKYASQSISGVPSRFSGSGSGTDFTLTISSLQPEDFATYYCQQGNSLPNTFGQGTKVEIKRTVAAPSVFIFPPSDEQLKSGTASVVCLLNNFYPREAKVQWKVDNALQSGNSQESVTEQDSKDSTYSLSSTLTLSKADYEKHKVYACEVTHQGLSSPVTKSFNRGEC
B3: ATF-L2 (bispecific antibody)
heavy: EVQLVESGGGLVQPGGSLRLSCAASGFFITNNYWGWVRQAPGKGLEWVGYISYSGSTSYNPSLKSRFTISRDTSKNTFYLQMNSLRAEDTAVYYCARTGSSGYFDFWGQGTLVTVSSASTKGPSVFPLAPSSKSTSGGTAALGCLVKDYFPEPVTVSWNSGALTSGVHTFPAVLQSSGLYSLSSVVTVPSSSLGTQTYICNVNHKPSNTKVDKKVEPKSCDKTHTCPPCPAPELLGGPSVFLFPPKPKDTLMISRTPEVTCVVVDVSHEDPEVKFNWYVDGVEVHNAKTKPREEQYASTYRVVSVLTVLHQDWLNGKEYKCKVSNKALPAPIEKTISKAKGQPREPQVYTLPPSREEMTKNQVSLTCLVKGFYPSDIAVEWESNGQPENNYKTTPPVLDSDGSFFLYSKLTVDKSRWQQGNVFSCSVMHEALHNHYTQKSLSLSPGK
light: DIQMTQSPSSLSASVGDRVTITCRASESVDDLLHWYQQKPGKAPKLLIKYASQSISGGSGAKLAALKAKLAALKGGGGSAAAISCVGSPECPPKCRAQGCKNGKCMNRKCKCYYCGGGGSELAALEAELAALEAGGSGSRFSGSGSGTDFTLTISSLQPEDFATYYCQQGNSLPNTFGQGTKVEIKRTVAAPSVFIFPPSDEQLKSGTASVVCLLNNFYPREAKVQWKVDNALQSGNSQESVTEQDSKDSTYSLSSTLTLSKADYEKHKVYACEVTHQGLSSPVTKSFNRGEC
notes: The summary says the graft lies between 56S and 60S of light chain FR3; also called ATF-L2 (with LCDR2-grafted Vm24)
B4: Etrolizumab (antibody, V domains shown)
VH: EVQLVESGGGLVQPGGSLRLSCAASGFFITNNYWGWVRQAPGKGLEWVGYISYSGSTSYNPSLKSRFTISRDTSKNTFYLQMNSLRAEDTAVYYCARTGSSGYFDFWGQGTLVTVSS
VL: DIQMTQSPSSLSASVGDRVTITCRASESVDDLLHWYQQKPGKAPKLLIKYASQSISGVPSRFSGSGSGTDFTLTISSLQPEDFATYYCQQGNSLPNTFGQGTKVEIKR
B5: ATF-H2 (bispecific antibody)
heavy: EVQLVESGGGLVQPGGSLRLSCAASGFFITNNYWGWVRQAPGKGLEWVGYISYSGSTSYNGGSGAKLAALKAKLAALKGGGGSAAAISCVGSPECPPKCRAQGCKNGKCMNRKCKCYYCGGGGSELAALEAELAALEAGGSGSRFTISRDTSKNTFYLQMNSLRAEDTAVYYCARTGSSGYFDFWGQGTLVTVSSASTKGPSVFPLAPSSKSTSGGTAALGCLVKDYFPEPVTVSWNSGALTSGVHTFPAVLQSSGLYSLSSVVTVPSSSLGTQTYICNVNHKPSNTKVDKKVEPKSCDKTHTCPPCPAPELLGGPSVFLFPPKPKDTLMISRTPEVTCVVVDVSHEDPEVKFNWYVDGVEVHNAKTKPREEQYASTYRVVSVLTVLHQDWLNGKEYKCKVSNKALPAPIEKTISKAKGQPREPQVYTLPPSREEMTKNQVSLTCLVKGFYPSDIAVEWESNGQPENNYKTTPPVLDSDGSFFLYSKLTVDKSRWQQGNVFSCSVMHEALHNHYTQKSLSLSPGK
light: DIQMTQSPSSLSASVGDRVTITCRASESVDDLLHWYQQKPGKAPKLLIKYASQSISGVPSRFSGSGSGTDFTLTISSLQPEDFATYYCQQGNSLPNTFGQGTKVEIKRTVAAPSVFIFPPSDEQLKSGTASVVCLLNNFYPREAKVQWKVDNALQSGNSQESVTEQDSKDSTYSLSSTLTLSKADYEKHKVYACEVTHQGLSSPVTKSFNRGEC
notes: The summary says the graft lies between 60N and 65S of heavy chain FR3; also called ATF-H2 (with HCDR2-grafted Vm24)
B6: ATF-H3 (bispecific antibody)
heavy: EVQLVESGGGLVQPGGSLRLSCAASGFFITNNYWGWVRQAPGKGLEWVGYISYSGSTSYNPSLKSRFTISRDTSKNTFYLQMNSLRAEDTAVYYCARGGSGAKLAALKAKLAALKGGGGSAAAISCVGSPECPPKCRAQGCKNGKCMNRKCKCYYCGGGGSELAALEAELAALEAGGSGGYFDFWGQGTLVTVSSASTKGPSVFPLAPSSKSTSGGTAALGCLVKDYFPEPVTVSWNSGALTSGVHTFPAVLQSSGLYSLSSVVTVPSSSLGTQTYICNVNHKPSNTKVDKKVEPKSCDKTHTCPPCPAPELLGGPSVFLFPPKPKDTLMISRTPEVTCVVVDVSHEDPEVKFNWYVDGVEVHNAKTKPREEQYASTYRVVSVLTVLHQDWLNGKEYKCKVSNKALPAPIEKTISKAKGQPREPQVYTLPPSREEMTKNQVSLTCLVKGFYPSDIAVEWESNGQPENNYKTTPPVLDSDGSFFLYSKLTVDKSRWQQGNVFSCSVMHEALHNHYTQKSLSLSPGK
light: B5 light
notes: Vm24 with linkers grafted into HCDR3 of etrolizumab; also called ATF-H3 (with HCDR3-grafted Vm24)
B7: ATF-H1 (bispecific antibody)
heavy: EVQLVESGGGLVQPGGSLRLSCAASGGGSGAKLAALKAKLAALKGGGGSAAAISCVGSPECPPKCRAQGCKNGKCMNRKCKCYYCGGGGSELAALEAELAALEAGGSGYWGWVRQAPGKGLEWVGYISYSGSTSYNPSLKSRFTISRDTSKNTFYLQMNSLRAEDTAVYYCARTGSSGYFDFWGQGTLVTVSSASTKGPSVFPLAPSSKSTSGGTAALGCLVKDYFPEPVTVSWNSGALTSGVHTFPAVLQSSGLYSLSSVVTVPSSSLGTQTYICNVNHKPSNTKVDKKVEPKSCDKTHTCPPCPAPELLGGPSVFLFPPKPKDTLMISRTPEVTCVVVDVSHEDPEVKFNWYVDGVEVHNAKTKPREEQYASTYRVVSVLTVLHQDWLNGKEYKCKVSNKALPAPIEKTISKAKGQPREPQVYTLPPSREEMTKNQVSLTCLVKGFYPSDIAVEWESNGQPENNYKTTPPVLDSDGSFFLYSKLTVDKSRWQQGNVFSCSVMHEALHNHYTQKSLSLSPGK
light: B5 light
notes: Vm24 with linkers grafted into HCDR1 of etrolizumab; also called ATF-H1 (with HCDR1-grafted Vm24)

Experiments:
Recombinant protein α4β7 = biological target: T1, Recombinant protein α4β7 (UniProt P13612 34-977; P26010 20-723); assay: ELISA on coated recombinant α4β7 (100 ng per well)
T1 construct: Coated on the ELISA plate at 100 ng per well; also called integrin β7
T1 sequence (P13612 34-977, chain 1 of 2): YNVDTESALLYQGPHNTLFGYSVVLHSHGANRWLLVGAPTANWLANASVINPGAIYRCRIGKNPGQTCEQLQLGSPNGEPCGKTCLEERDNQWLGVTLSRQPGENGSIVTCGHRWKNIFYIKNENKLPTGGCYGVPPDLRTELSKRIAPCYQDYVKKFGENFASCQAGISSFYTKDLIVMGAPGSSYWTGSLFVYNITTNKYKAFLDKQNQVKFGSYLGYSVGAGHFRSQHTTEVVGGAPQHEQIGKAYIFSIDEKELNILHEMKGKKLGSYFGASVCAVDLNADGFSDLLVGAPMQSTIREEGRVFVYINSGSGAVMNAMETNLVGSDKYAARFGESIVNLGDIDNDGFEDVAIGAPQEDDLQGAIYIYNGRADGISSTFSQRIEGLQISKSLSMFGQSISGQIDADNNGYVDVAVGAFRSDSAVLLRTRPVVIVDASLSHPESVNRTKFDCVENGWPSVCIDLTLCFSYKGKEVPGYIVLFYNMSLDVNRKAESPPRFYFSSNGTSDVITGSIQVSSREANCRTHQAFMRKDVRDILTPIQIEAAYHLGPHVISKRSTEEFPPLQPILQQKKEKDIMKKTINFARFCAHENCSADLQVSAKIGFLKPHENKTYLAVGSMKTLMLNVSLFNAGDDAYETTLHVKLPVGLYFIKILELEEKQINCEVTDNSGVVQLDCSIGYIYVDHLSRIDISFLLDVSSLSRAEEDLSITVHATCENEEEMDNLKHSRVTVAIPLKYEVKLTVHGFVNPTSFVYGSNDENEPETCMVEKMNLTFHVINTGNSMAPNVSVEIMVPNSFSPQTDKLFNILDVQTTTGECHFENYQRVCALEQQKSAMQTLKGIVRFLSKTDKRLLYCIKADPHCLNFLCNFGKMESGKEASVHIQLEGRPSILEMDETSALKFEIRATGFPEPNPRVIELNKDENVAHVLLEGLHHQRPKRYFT
T1 sequence (P26010 20-723, chain 2 of 2): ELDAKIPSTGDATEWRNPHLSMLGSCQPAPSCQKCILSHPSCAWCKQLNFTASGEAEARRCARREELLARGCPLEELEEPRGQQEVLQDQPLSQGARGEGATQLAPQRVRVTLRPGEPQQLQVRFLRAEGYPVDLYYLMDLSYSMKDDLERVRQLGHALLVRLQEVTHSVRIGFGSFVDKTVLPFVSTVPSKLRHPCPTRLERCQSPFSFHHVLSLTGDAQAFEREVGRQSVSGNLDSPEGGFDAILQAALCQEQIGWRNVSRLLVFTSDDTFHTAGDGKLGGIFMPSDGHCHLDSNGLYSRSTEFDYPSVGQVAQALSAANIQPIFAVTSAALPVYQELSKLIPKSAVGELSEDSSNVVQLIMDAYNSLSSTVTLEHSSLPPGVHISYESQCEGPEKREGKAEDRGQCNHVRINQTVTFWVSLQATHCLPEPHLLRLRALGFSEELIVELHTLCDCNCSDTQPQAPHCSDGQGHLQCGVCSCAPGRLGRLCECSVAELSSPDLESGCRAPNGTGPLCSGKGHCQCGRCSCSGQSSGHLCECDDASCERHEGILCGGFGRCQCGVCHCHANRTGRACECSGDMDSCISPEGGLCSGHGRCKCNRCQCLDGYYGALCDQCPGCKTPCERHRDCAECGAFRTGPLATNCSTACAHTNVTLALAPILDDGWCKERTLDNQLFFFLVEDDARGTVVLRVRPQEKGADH

[1] = biological target: integrin β7 on human β7-high T cells (human, UniProt P26010 20-798; P13612 34-1032); assay: cell-based or functional assay
[2] = biological target: Kv1.3 potassium ion channel (UniProt P22001 1-575); assay: cell-based or functional assay
Sequence of Kv1.3 potassium ion channel (P22001 whole entry): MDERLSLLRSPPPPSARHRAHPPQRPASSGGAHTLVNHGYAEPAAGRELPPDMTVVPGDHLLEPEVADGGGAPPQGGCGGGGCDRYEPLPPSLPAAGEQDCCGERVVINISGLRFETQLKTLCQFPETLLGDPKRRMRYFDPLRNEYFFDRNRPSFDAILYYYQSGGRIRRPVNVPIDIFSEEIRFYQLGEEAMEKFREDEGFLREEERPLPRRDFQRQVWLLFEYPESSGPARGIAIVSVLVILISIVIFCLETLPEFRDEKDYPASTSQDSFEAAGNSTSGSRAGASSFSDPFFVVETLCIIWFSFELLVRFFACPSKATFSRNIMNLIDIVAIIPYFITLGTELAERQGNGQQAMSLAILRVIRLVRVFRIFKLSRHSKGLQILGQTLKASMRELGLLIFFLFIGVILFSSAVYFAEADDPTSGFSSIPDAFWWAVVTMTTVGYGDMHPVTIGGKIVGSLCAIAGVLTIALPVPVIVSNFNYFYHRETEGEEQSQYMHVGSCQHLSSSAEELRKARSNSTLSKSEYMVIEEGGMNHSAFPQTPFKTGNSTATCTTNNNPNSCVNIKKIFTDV

Row | Binder | Kd (Recombinant protein α4β7) [nM] | IC50, cell adhesion assay (CellTiter-Glo) [1] | IC50, Flipr potassium current fluorescence detection [2] [nM] | binding result (Recombinant protein α4β7)
1 | B1 | 0.0408 |  |  | 
2 | B2 |  | 0.173 µg/ml and 1.09 nM | 0.7 | 
3 | B3 | 0.0359 |  |  | 
4 | B4 |  | 0.06 µg/ml and 0.42 nM |  | 
5 | B5 | 0.0192 | 0.072 µg/ml and 0.45 nM | 0.53 | 
6 | B6 | 13.9 |  |  | 
7 | B7 |  |  | 0.72 | no binding
